Broadly, the Kd is the equilibrium constant for the complex coming apart.

Test [1] deals with T1, cynomolgus monkey FcγRIIb extracellular domain with C-terminal His-tag (cynomolgus monkey).
T1 construct: Expressed in FreeStyle 293 cells and purified; also called cyno FcγRIIb; cynoFcγRIIb; not shown: C-terminal His-tag
T1 chain: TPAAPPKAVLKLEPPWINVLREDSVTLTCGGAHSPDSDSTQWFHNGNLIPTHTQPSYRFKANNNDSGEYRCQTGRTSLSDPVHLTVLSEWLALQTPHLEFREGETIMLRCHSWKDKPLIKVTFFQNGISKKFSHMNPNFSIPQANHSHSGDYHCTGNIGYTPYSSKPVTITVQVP
The test is described as follows: SPR (Biacore); KD of SG1 divided by KD of the variant for this FcgR. (In general: Surface plasmon resonance follows binding to a sensor surface in real time, without labels.)

Test [2] has as its target T2, human FcγRIIb extracellular domain with C-terminal His-tag (human, UniProt P31994 43-217).
T2 construct: Expressed in FreeStyle 293 cells and purified; also called humanFcgRIIb; not shown: C-terminal His-tag
T2 sequence: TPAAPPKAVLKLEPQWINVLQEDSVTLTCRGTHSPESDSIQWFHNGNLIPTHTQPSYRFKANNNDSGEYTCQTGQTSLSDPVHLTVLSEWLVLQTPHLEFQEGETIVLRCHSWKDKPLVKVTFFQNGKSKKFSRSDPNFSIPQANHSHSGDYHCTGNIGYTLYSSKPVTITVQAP
The test can be described thus: SPR (Biacore), antibody captured on chip, FcgR extracellular domain as analyte, 25 C.

Test [3] addresses T3, human FcγRIIaR extracellular domain with C-terminal His-tag (human, UniProt P12318 34-217).
T3 construct: Expressed in FreeStyle 293 cells and purified; also called human FcγRIIa (type R); FcgRIIaR; not shown: C-terminal His-tag
T3 chain: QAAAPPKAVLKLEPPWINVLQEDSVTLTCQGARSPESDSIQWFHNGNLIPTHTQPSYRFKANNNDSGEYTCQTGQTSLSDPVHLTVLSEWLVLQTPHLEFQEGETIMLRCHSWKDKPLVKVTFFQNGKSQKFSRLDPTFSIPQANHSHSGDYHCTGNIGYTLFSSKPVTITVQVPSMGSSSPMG
Described as above.

Test [4] has as its target T4, human FcγRIIIaV extracellular domain with C-terminal His-tag (human, UniProt P08637 17-208).
T4 construct: Expressed in FreeStyle 293 cells and purified; also called FcgRIIIaV; not shown: C-terminal His-tag
The test is described as above.

For test [5], the target named is T1, cynomolgus monkey FcγRIIb extracellular …. Described as above.
Test [6] has as its target T5, cynomolgus monkey FcγRIIa3 extracellular domain with C-terminal His-tag (cynomolgus monkey).
T5 construct: Expressed in FreeStyle 293 cells and purified; also called cyno FcγRIIa3; cynoFcgRIIa3; not shown: C-terminal His-tag
T5 chain: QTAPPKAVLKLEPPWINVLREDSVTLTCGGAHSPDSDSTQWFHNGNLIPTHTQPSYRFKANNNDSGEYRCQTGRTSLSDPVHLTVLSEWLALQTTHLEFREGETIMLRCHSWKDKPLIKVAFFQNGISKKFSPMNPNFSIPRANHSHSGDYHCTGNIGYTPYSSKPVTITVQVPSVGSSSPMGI
The test is described as above.

Test [7] addresses T6, cynomolgus monkey FcγRIIa1 extracellular domain with C-terminal His-tag (cynomolgus monkey).
T6 construct: Expressed in FreeStyle 293 cells and purified; also called cyno FcγRIIa1; cynoFcgRIIa1; not shown: C-terminal His-tag
T6 chain: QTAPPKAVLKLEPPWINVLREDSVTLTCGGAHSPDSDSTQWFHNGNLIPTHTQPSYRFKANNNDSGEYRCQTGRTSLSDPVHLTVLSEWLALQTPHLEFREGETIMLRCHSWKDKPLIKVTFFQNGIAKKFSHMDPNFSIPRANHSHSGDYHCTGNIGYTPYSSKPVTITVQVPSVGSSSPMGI
The description is as above.

Test [8] concerns the target T7, human FcγRIIaH extracellular domain with C-terminal His-tag (human, UniProt P12318 34-217).
T7 construct: Expressed in FreeStyle 293 cells and purified; also called human FcγRIIa (type H); FcgRIIaH; not shown: C-terminal His-tag
T7 sequence: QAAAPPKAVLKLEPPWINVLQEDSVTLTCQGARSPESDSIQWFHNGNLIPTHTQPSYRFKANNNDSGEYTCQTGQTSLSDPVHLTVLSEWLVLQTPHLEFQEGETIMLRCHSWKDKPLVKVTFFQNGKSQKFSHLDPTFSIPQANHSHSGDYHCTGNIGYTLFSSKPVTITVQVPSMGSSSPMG
Described as above.

Test [9] deals with T8, cynomolgus monkey FcγRIIa2 extracellular domain with C-terminal His-tag (cynomolgus monkey).
T8 construct: Expressed in FreeStyle 293 cells and purified; also called cyno FcγRIIa2; cynoFcgRIIa2; not shown: C-terminal His-tag
T8 chain: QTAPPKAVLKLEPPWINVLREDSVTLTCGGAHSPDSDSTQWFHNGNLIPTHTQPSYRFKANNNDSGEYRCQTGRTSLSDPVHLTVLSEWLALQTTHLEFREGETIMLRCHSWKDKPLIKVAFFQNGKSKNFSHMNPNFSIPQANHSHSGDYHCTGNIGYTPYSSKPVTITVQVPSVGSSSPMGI
The test is described as above.
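For KD fold (SG1 = 1) in this document: relative to parent M103205H795-SG1 carrying the SG1 human heavy chain constant region.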

T4 sequence (P08637 17-208 F176V): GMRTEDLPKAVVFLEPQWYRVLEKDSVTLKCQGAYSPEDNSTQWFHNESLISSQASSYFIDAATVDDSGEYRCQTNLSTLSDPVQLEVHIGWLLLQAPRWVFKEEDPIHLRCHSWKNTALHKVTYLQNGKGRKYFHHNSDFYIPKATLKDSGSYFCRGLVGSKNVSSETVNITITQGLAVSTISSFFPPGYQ

B1: M103205H795-MY172 / M103202L889-SK1 (antibody, human IgG1, kappa)
heavy: QVTLKESGPVLVKPTETLTLTCTVSGIDLSHDDISWVRQAPGKGLEWVGIISYAGSTYYASWAKGRLTISKDTSKNQVVLTMTNMDPVDTATYYCARGVPAYSHGGDLWGQGTLVTVSSASTKGPSVFPLAPSSKSTSGGTAALGCLVKDYFPEPVTVSWNSGALTSGVHTFPAVLQSSGLYSLSSVVTVPSSSLGTQTYICNVNHKPSNTKVDKKVEPKSCDKTHTCPPCPAPELLNGPSVFLFPPKPKDTLMISRTPEVTCVVVDVSEEDPEVKFNWYVDGVEVHNAKTKPREEQYNSTYRVVSVLTVLHQDWLNGKEYKCKVSNKALPAPIEKTISKAKGQPREPQVYTLPPSREEMTKNQVSLTCLVKGFYPSDIAVEWESNGQPENNYKTTPGVLDSDGSFFLYSKLTVDKSRWQQGNVFSCSVMHEALHNHYTQKSLSLSP
light: DIVMTQSPATLSLSPGERATLSCTSSQSVYHANWLSWFQQKPGQPPKLLIYWASTLAYGVPSRFSGSGSGTDFTLTISSLQPEDAATYYCAGGYGGGRYAFGQGTKVEIKRTVAAPSVFIFPPSDEQLKSGTASVVCLLNNFYPREAKVQWKVDNALQSGNSQESVTEQDSKDSTYSLSSTLTLSKADYEKHKVYACEVTHQGLSSPVTKSFNRGEC
notes: Position 396 variant derived from MY052, expressed with M103202L889-SK1 as light chain
Consider B1, for which, in test [1], the “KD fold (SG1 = 1)” value was determined as 1.5 fold. The Kd in test [2] came out at 1800 nM; in test [3], 3100 nM; in test [4], 6500 nM; in test [5] it was 1200 nM; in test [6] it was 11000 nM; in test [7] it was 2700 nM. Besides, the Kd in test [8] was 17000 nM; in test [9], 2300 nM.

B2: M103205H795-MY175 / M103202L889-SK1 (antibody, human IgG1, kappa)
heavy: QVTLKESGPVLVKPTETLTLTCTVSGIDLSHDDISWVRQAPGKGLEWVGIISYAGSTYYASWAKGRLTISKDTSKNQVVLTMTNMDPVDTATYYCARGVPAYSHGGDLWGQGTLVTVSSASTKGPSVFPLAPSSKSTSGGTAALGCLVKDYFPEPVTVSWNSGALTSGVHTFPAVLQSSGLYSLSSVVTVPSSSLGTQTYICNVNHKPSNTKVDKKVEPKSCDKTHTCPPCPAPELLNGPSVFLFPPKPKDTLMISRTPEVTCVVVDVSEEDPEVKFNWYVDGVEVHNAKTKPREEQYNSTYRVVSVLTVLHQDWLNGKEYKCKVSNKALPAPIEKTISKAKGQPREPQVYTLPPSREEMTKNQVSLTCLVKGFYPSDIAVEWESNGQPENNYKTTPKVLDSDGSFFLYSKLTVDKSRWQQGNVFSCSVMHEALHNHYTQKSLSLSP
light: DIVMTQSPATLSLSPGERATLSCTSSQSVYHANWLSWFQQKPGQPPKLLIYWASTLAYGVPSRFSGSGSGTDFTLTISSLQPEDAATYYCAGGYGGGRYAFGQGTKVEIKRTVAAPSVFIFPPSDEQLKSGTASVVCLLNNFYPREAKVQWKVDNALQSGNSQESVTEQDSKDSTYSLSSTLTLSKADYEKHKVYACEVTHQGLSSPVTKSFNRGEC
notes: as for B1
With B2, the “KD fold (SG1 = 1)” value in [1] came out at 2.5 fold. For the same molecule, the Kd in [2] worked out at 830 nM; in [3] it was 1800 nM; in test [4], 7600 nM; in test [5] it was 710 nM; in test [6] it was 7500 nM; in test [7], 1400 nM. The Kd in [8] was 860 nM; in test [9], 1500 nM.

B3: M103205H795-MY173 / M103202L889-SK1 (antibody, human IgG1, kappa)
heavy: QVTLKESGPVLVKPTETLTLTCTVSGIDLSHDDISWVRQAPGKGLEWVGIISYAGSTYYASWAKGRLTISKDTSKNQVVLTMTNMDPVDTATYYCARGVPAYSHGGDLWGQGTLVTVSSASTKGPSVFPLAPSSKSTSGGTAALGCLVKDYFPEPVTVSWNSGALTSGVHTFPAVLQSSGLYSLSSVVTVPSSSLGTQTYICNVNHKPSNTKVDKKVEPKSCDKTHTCPPCPAPELLNGPSVFLFPPKPKDTLMISRTPEVTCVVVDVSEEDPEVKFNWYVDGVEVHNAKTKPREEQYNSTYRVVSVLTVLHQDWLNGKEYKCKVSNKALPAPIEKTISKAKGQPREPQVYTLPPSREEMTKNQVSLTCLVKGFYPSDIAVEWESNGQPENNYKTTPHVLDSDGSFFLYSKLTVDKSRWQQGNVFSCSVMHEALHNHYTQKSLSLSP
light: DIVMTQSPATLSLSPGERATLSCTSSQSVYHANWLSWFQQKPGQPPKLLIYWASTLAYGVPSRFSGSGSGTDFTLTISSLQPEDAATYYCAGGYGGGRYAFGQGTKVEIKRTVAAPSVFIFPPSDEQLKSGTASVVCLLNNFYPREAKVQWKVDNALQSGNSQESVTEQDSKDSTYSLSSTLTLSKADYEKHKVYACEVTHQGLSSPVTKSFNRGEC
notes: as for B1
Take B3: the “KD fold (SG1 = 1)” value in test [1] was determined as 2.3 fold. In addition, the Kd came to 10000 nM in test [2]; 1900 nM in test [3]; 7000 nM in [4]; 780 nM in [5]; 3000 nM in test [6]; 1700 nM in test [7]. The Kd in [8] worked out at 1000 nM; in [9], 1800 nM.

B4: M103205H795-MY174 / M103202L889-SK1 (antibody, human IgG1, kappa)
heavy: QVTLKESGPVLVKPTETLTLTCTVSGIDLSHDDISWVRQAPGKGLEWVGIISYAGSTYYASWAKGRLTISKDTSKNQVVLTMTNMDPVDTATYYCARGVPAYSHGGDLWGQGTLVTVSSASTKGPSVFPLAPSSKSTSGGTAALGCLVKDYFPEPVTVSWNSGALTSGVHTFPAVLQSSGLYSLSSVVTVPSSSLGTQTYICNVNHKPSNTKVDKKVEPKSCDKTHTCPPCPAPELLNGPSVFLFPPKPKDTLMISRTPEVTCVVVDVSEEDPEVKFNWYVDGVEVHNAKTKPREEQYNSTYRVVSVLTVLHQDWLNGKEYKCKVSNKALPAPIEKTISKAKGQPREPQVYTLPPSREEMTKNQVSLTCLVKGFYPSDIAVEWESNGQPENNYKTTPIVLDSDGSFFLYSKLTVDKSRWQQGNVFSCSVMHEALHNHYTQKSLSLSP
light: DIVMTQSPATLSLSPGERATLSCTSSQSVYHANWLSWFQQKPGQPPKLLIYWASTLAYGVPSRFSGSGSGTDFTLTISSLQPEDAATYYCAGGYGGGRYAFGQGTKVEIKRTVAAPSVFIFPPSDEQLKSGTASVVCLLNNFYPREAKVQWKVDNALQSGNSQESVTEQDSKDSTYSLSSTLTLSKADYEKHKVYACEVTHQGLSSPVTKSFNRGEC
notes: as for B1
In the case of B4, in [1], the “KD fold (SG1 = 1)” value stood at 2.8 fold. Moreover, the Kd in [2] was 850 nM; in test [3], 1400 nM; in test [4], 6800 nM; in test [5], 650 nM; in [6] it was 6400 nM; in test [7], 1500 nM. Also, the Kd is 810 nM in test [8] and 1600 nM in [9].

These data come from patent publication US20200317768A1 (published 2020).
